From JP2011147454A (dated 2011)
Positions count from the first letter of the chain named. Like-named read-outs stand apart in the source and are kept apart here.

What was measured:
[1] = target: 未変性の(天然に存在する)ヒトIL-13 (HDLM-2細胞から放出) (human) (UniProt P35225); assay: cell-based or functional assay
[2] = target: 組換え細菌由来のヒトIL-13 (Peprotech) (human) (UniProt P35225); assay: cell-based or functional assay
[3] = target: 組換えヒトエオタキシン-1 (R&D Systems) (human) (UniProt P51671); assay: cell-based or functional assay
Sequence of UniProt P51671 (P51671 24-97 limits assumed): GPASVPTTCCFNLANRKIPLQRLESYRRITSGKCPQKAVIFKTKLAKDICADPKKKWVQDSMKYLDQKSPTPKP

[4] = target: T1, 非ヒト霊長類IL-13 (アカゲザル/カニクイザル; バキュロウイルス発現, C末端親和性タグ付き) (rhesus / cynomolgus monkey); assay: cell-based or functional assay
T1 chain: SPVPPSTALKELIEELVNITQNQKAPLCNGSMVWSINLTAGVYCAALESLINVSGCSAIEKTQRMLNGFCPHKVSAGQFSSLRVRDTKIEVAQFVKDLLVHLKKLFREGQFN

[5] = target: ヒト変種IL-13 (Q130R) (バキュロウイルス発現, C末端親和性タグ付き) (human) (UniProt P35225); assay: cell-based or functional assay
[6] = target: 未変性の(天然に存在する)ヒトIL-13 (HDLM-2細胞から放出) (human) (UniProt P35225); assay: cell-based or functional assay; remark: listed apart in the source
[7] = target: ヒト変種IL-13 (Q130R) (バキュロウイルス発現, C末端親和性タグ付き) (human) (UniProt P35225); assay: cell-based or functional assay; remark: listed apart in the source
[8] = target: 野生型ヒトIL-13 (バキュロウイルス発現, C末端親和性タグ付き) (human) (UniProt P35225); assay: cell-based or functional assay
[9] = target: 組換え細菌由来のヒトIL-13 (Peprotech) (human) (UniProt P35225); assay: cell-based or functional assay; remark: listed apart in the source
[10] = target: 組換え細菌由来のヒトIL-13 (Peprotech) (human) (UniProt P35225); assay: SPR (BIAcore 2000), IgG4 amine-coupled to chip (~500 RU), IL-13 50-0.78 nM in solution
[11] = target: T2, 組換え細菌由来のネズミIL-13 (Peprotech) (murine (mouse), UniProt P20109 21-131, limits assumed); assay: cell-based or functional assay
T2 sequence (looked up): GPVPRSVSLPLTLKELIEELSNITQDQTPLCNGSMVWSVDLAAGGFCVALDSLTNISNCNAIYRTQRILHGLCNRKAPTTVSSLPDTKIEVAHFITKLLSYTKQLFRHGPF

[12] = target: T2, 組換え細菌由来のネズミIL-13 (Peprotech); assay: SPR (BIAcore 2000), IgG4 amine-coupled to chip (~500 RU), IL-13 50-0.78 nM in solution

JES10-5A2 (ラットIgG1, Biosource) (antibody)
IC50, HDLM-2細胞増殖アッセイ [1]: 10.7 nM | IC50, NHLFエオタキシン放出アッセイ [2]: 0.623 nM | IC50, TF-1細胞増殖アッセイ [2]: 1.02 nM

BAK502G9 IgG4 (antibody)
IC50, HDLM-2細胞増殖アッセイ [1]: 4.6 nM

B-B13 (マウスIgG1, Euroclone) (antibody)
IC50, HDLM-2細胞増殖アッセイ [1]: 16.7 nM | IC50, NHLFエオタキシン放出アッセイ [2]: 0.219 nM | IC50, TF-1細胞増殖アッセイ [2]: 0.471 nM

B1: CAT-213 (antibody, from another filing, V domains shown)
VH: QVQLVQSGGGVVQPGRSLRLSCAASGFTFSSYGMHWVRQAPGKGLEWVAVISYDGSIKHYADSVKGRFTISRDNSKNTLYLQMNSLRTDDTAVYYCAGDTDYGDIDPWGQGTMVTVSS
VL: DIQMTQSPSSVSASVGDRVTITCRASQDISSWLAWYQQKPGKAPKLLIYAASSLQSGVPSRFSGSGSGTDFTLTISSLQPEDFATYYCQQASSFPSITFGQGTRLEIKR
好酸球形態変化 (%ブランク形態変化), 100 nM CAT-213 [3]: 101%

B2: BAK502G9 IgG4 (antibody, V domains shown)
VH: QVQLVQSGAEVKKPGASVKVSCKASGYTFTNYGLSWVRQAPGQGLEWMGWISANNGDTNYGQEFQGRVTMTTDTSTSTAYMELRSLRSDDTAVYYCARDSSSSWARWFFDLWGRGTLVTVSS
VL: SYVLTQPPSVSVAPGKTARITCGGNIIGSKLVHWYQQKPGQAPVLVIYDDGDRPSGIPERFSGSNSGNTATLTISRVEAGDEADYYCQVWDTGSDPVVFGGGTKLTVL
IC50, TF-1細胞増殖アッセイ [4]: 2 nM | IC50, TF-1細胞増殖アッセイ [5]: 1.9 nM

B3: BAK1183H4 IgG4 (antibody, V domains shown)
VH: B2 VH with S52N, A53Y, N54D, N55G, D57N, N59Q
VL: B2 VL with T21P
IC50, TF-1細胞増殖アッセイ [4]: 1.6 nM

B4: BAK1167F2 IgG4 (antibody, V domains shown)
VH: B2 VH with T30E, N31Q, Y32T, L34V
VL: B2 VL
IC50, HDLM-2細胞増殖アッセイ [6]: 1.1 nM | IC50, TF-1細胞増殖アッセイ [7]: 1.1 nM | IC50, TF-1細胞増殖アッセイ [8]: 1 nM | IC50, HUVEC VCAM-1アップレギュレーション [9]: 0.055 nM | IC50, NHLFエオタキシン放出アッセイ [9]: 0.069 nM | Kd [10]: 0.136 nM | IC50, TF-1細胞増殖アッセイ [4]: 1.3 nM

B5: BAK1183H4 IgG4 (antibody, from another filing, V domains shown)
VH: B2 VH with S52N, A53Y, N54D, N55G, D57N, N59Q
VL: B2 VL
IC50, HDLM-2細胞増殖アッセイ [6]: 3.5 nM | IC50, TF-1細胞増殖アッセイ [7]: 1 nM | IC50, TF-1細胞増殖アッセイ [8]: 0.9 nM | IC50, HUVEC VCAM-1アップレギュレーション [9]: 0.058 nM | IC50, NHLFエオタキシン放出アッセイ [9]: 0.118 nM | Kd [10]: 0.081 nM

B6: BAK209B11 scFv (scFv, V domains shown)
VH: VQLQESGGGGLVQPGGSLRLSCAASGFTFSSYGMSWVRQAPGKGLEWVSSISASGDSTFYADSVKGRFTISRDNNKNMVFLQVNSLRADDTAVYFCAKDWSQWLVGDAFDVWGRGTTVTVSS
VL: DIQLTQSPSTLSASVGDRVTITCRASQSVSLWVAWYQQRPGKAPKLLIYDGSTLQSGVPARFSGSGSGTEFTLTISSLQPDDFATYYCQQYKTFSTFGQGTKVEIK
IC50, TF-1細胞増殖アッセイ [11]: 185 nM

B7: BAK209B11 IgG4 (antibody, V domains shown)
VH: B6 VH
VL: DIQLTQSPSTLSASVGDRVTITCRASQSVSLWVAWYQQRPGKAPKLLIYDGSTLQSGVPARFSGSGSGTEFTLTISSLQPDDFATYYCQQYKTFSTFGQGTKVEIKR
Kd [12]: 5.1 nM | IC50, B9細胞増殖アッセイ [11]: 0.776 nM
